B1: FEM1B (parent)
chain: TLAALLLNRSESDIRYLLGYVSQQ
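Further: lentivirally expressed fusions sorted by FACS into six bins by GFP to DsRed ratio, PSI derived from sequencing read proportions per bin multiplied by bin number.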

The series covers variants of B1. Kind of series: protein stability index of a GFP-peptide fusion (GPS, HEK-293T) (PSI 1-6); higher = more stable. The settings on record: c terminus: a fixed tail appended.
In the case of TLAALLLNQSESDIRYLLGYVSQQ [R9Q], the protein stability index worked out at 1.96.

As to TLAALLLNVSESDIRYLLGYVSQQ [R9V], the protein stability index was determined as 2.67.

As for TLAALLLNRSESDLRYLLGYVSQQ [I14L], the protein stability index worked out at 2.7.

Regarding TLAALLLNRSESDSRYLLGYVSQQ [I14S], the protein stability index is 3.

Turning to TLAALLLNRSESDMRYLLGYVSQQ [I14M], the protein stability index stood at 3.25.

Turning to TLAALLLNRSESDNRYLLGYVSQQ [I14N], the protein stability index is 1.74.

For TLAALLLNRSESDCRYLLGYVSQQ [I14C], the protein stability index was determined as 2.37.

For the variant TLAALLLNRSESDPRYLLGYVSQQ [I14P], the protein stability index was determined as 1.79.

For the variant TLAALLLNRSESDHRYLLGYVSQQ [I14H], the protein stability index is 3.1.

In the case of TLAALLLNRSESDARYLLGYVSQQ [I14A], the protein stability index was determined as 2.58.

TLAALLLNRSESDERYLLGYVSQQ [I14E]: the protein stability index is 2.85.

For the variant TLAALLLNRSESDTRYLLGYVSQQ [I14T], the protein stability index was 2.56.

For the variant TLAALLLNRSESDYRYLLGYVSQQ [I14Y], the protein stability index was determined as 3.54.

For TLAALLLNRSESDDRYLLGYVSQQ [I14D], the protein stability index stood at 1.53.

Take TLAALLLNRSESDQRYLLGYVSQQ [I14Q]: the protein stability index amounted to 2.35.

As for TLAALLLNRSESDFRYLLGYVSQQ [I14F], the protein stability index stood at 2.7.

As for TLAALLLNRSESDWRYLLGYVSQQ [I14W], the protein stability index was 1.77.

In the case of TLAALLLNRSESDKRYLLGYVSQQ [I14K], the protein stability index was determined as 1.96.

Consider TLAALLLNRSESDRRYLLGYVSQQ [I14R], for which the protein stability index turned out to be 3.

For the variant TLAALLLNRSESDGRYLLGYVSQQ [I14G], the protein stability index worked out at 3.06.

With TLAALLLNRSESDVRYLLGYVSQQ [I14V], the protein stability index is 2.9.

With TLAALLLNRSLSDIRYLLGYVSQQ [E11L], the protein stability index was 3.34.

With TLAALLLNRSMSDIRYLLGYVSQQ [E11M], the protein stability index worked out at 3.08.

TLAALLLNRSPSDIRYLLGYVSQQ [E11P]: the protein stability index was 2.08.

For the variant TLAALLLNRSCSDIRYLLGYVSQQ [E11C], the protein stability index worked out at 3.04.

With TLAALLLNRSGSDIRYLLGYVSQQ [E11G], the protein stability index came to 3.03.

On to TLAALLLNRSVSDIRYLLGYVSQQ [E11V], for which the protein stability index stood at 2.96.

For the variant TLAALLLNRSQSDIRYLLGYVSQQ [E11Q], the protein stability index was determined as 1.99.

Regarding TLAALLLNRSISDIRYLLGYVSQQ [E11I], the protein stability index is 4.17.

For TLAALLLNRSHSDIRYLLGYVSQQ [E11H], the protein stability index was found to be 3.15.

As to TLAALLLNRSFSDIRYLLGYVSQQ [E11F], the protein stability index stood at 3.19.

With TLAALLLNRSASDIRYLLGYVSQQ [E11A], the protein stability index was determined as 2.44.

Turning to TLAALLLNRSSSDIRYLLGYVSQQ [E11S], the protein stability index is 3.2.

Turning to TLAALLLNRSRSDIRYLLGYVSQQ [E11R], the protein stability index is 3.13.

Consider TLAALLLNRSNSDIRYLLGYVSQQ [E11N], for which the protein stability index is 3.2.

TLAALLLNRSWSDIRYLLGYVSQQ [E11W]: the protein stability index was 2.68.

Turning to TLAALLLNRSKSDIRYLLGYVSQQ [E11K], the protein stability index is 2.83.

In the case of TLAALLLNRSDSDIRYLLGYVSQQ [E11D], the protein stability index was found to be 2.49.

For the variant TLAALLLNRSYSDIRYLLGYVSQQ [E11Y], the protein stability index came to 3.35.

Regarding TLAALLLNRSTSDIRYLLGYVSQQ [E11T], the protein stability index was found to be 2.44.

Take TLAALLLNRSESDIRKLLGYVSQQ [Y16K]: the protein stability index is 2.83.

On to TLAALLLNRSESDIRPLLGYVSQQ [Y16P], for which the protein stability index was 2.95.

Consider TLAALLLNRSESDIRILLGYVSQQ [Y16I], for which the protein stability index stood at 1.57.

Consider TLAALLLNRSESDIRNLLGYVSQQ [Y16N], for which the protein stability index was found to be 2.17.

Regarding TLAALLLNRSESDIRELLGYVSQQ [Y16E], the protein stability index worked out at 2.06.

Consider TLAALLLNRSESDIRVLLGYVSQQ [Y16V], for which the protein stability index was determined as 2.24.

As for TLAALLLNRSESDIRGLLGYVSQQ [Y16G], the protein stability index was found to be 3.2.

Consider TLAALLLNRSESDIRQLLGYVSQQ [Y16Q], for which the protein stability index amounted to 3.05.

Turning to TLAALLLNRSESDIRRLLGYVSQQ [Y16R], the protein stability index is 2.06.

As to TLAALLLNRSESDIRLLLGYVSQQ [Y16L], the protein stability index worked out at 2.01.

Turning to TLAALLLNRSESDIRCLLGYVSQQ [Y16C], the protein stability index came out at 2.91.

As for TLAALLLNRSESDIRALLGYVSQQ [Y16A], the protein stability index is 4.57.

For the variant TLAALLLNRSESDIRTLLGYVSQQ [Y16T], the protein stability index is 3.16.

As for TLAALLLNRSESDIRMLLGYVSQQ [Y16M], the protein stability index came to 2.45.

Regarding TLAALLLNRSESDIRSLLGYVSQQ [Y16S], the protein stability index worked out at 1.81.

Regarding TLAALLLNRSESDIRFLLGYVSQQ [Y16F], the protein stability index was 3.75.

Take TLAALLLNRSESDIRWLLGYVSQQ [Y16W]: the protein stability index was 4.55.

For the variant TLAALLLNRSESDIRHLLGYVSQQ [Y16H], the protein stability index turned out to be 1.88.

In the case of TLAALLLNRSESDIRDLLGYVSQQ [Y16D], the protein stability index came out at 2.38.

For the variant TLAALLLNRSESDIRYCLGYVSQQ [L17C], the protein stability index came out at 3.59.

For TLAALLLNRSELDIRYLLGYVSQQ [S12L], the protein stability index is 2.36.

On to TLAALLLNRSEWDIRYLLGYVSQQ [S12W], for which the protein stability index turned out to be 3.62.

As to TLAALLLNRSEKDIRYLLGYVSQQ [S12K], the protein stability index was 3.14.

Turning to TLAALLLNRSEYDIRYLLGYVSQQ [S12Y], the protein stability index is 2.93.

Regarding TLAALLLNRSETDIRYLLGYVSQQ [S12T], the protein stability index was 2.18.

In the case of TLAALLLNRSEVDIRYLLGYVSQQ [S12V], the protein stability index was 1.73.

Consider TLAALLLNRSEHDIRYLLGYVSQQ [S12H], for which the protein stability index came to 2.48.

With TLAALLLNRSEADIRYLLGYVSQQ [S12A], the protein stability index worked out at 2.19.

Turning to TLAALLLNRSEIDIRYLLGYVSQQ [S12I], the protein stability index was determined as 3.15.

On to TLAALLLNRSEPDIRYLLGYVSQQ [S12P], for which the protein stability index amounted to 3.27.

In the case of TLAALLLNRSERDIRYLLGYVSQQ [S12R], the protein stability index was 2.36.

TLAALLLNRSEMDIRYLLGYVSQQ [S12M]: the protein stability index stood at 2.33.

Regarding TLAALLLNRSEQDIRYLLGYVSQQ [S12Q], the protein stability index worked out at 2.69.

In the case of TLAALLLNRSEEDIRYLLGYVSQQ [S12E], the protein stability index was 3.18.

As for TLAALLLNRSEDDIRYLLGYVSQQ [S12D], the protein stability index was 2.71.

In the case of TLAALLLNRSENDIRYLLGYVSQQ [S12N], the protein stability index was found to be 2.79.

For the variant TLAALLLNRSEGDIRYLLGYVSQQ [S12G], the protein stability index is 3.69.

As for TLAALLLNRSEFDIRYLLGYVSQQ [S12F], the protein stability index came out at 2.89.

TLAALLFNRSESDIRYLLGYVSQQ [L7F]: the protein stability index was determined as 2.56.

In the case of TLAALLKNRSESDIRYLLGYVSQQ [L7K], the protein stability index turned out to be 2.38.

Consider TLAALLANRSESDIRYLLGYVSQQ [L7A], for which the protein stability index came to 2.03.

With TLAALLWNRSESDIRYLLGYVSQQ [L7W], the protein stability index turned out to be 2.28.

As for TLAALLQNRSESDIRYLLGYVSQQ [L7Q], the protein stability index was 1.79.

Regarding TLAALLPNRSESDIRYLLGYVSQQ [L7P], the protein stability index is 1.3.

Consider TLAALLYNRSESDIRYLLGYVSQQ [L7Y], for which the protein stability index was 1.28.

Regarding TLAALLDNRSESDIRYLLGYVSQQ [L7D], the protein stability index was 1.97.

Take TLAALLGNRSESDIRYLLGYVSQQ [L7G]: the protein stability index worked out at 1.79.

Regarding TLAALLRNRSESDIRYLLGYVSQQ [L7R], the protein stability index was 1.78.

For the variant TLAALLHNRSESDIRYLLGYVSQQ [L7H], the protein stability index was found to be 1.7.

For the variant TLAALLMNRSESDIRYLLGYVSQQ [L7M], the protein stability index came out at 2.58.

In the case of TLAALLSNRSESDIRYLLGYVSQQ [L7S], the protein stability index worked out at 1.31.

For TLAALLCNRSESDIRYLLGYVSQQ [L7C], the protein stability index was 2.03.

For the variant TLAALLENRSESDIRYLLGYVSQQ [L7E], the protein stability index worked out at 1.42.

As for TLAALLNNRSESDIRYLLGYVSQQ [L7N], the protein stability index is 1.95.

Values taken from the supplement of paper PMC10567573.
